Experimental findings from publication PMC7129780 (Cytokine, 2019) are described below.

As usually defined, the Kd is the equilibrium constant for the complex coming apart.

One experiment deals with T1, IL10Rβ (UniProt Q08334 20-220).
T1 sequence (looked up): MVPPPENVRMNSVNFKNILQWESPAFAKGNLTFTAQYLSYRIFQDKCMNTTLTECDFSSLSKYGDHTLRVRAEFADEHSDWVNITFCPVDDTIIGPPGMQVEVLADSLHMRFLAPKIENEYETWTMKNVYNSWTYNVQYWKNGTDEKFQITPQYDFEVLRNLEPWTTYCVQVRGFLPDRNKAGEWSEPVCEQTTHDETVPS
Put plainly: BLI. For orientation: In BLI a coated tip is dipped into the sample, and binding shifts an interference pattern.

The next experiment addresses T2, IFNλR1 (UniProt Q8IU57 21-228).
T2 sequence (looked up): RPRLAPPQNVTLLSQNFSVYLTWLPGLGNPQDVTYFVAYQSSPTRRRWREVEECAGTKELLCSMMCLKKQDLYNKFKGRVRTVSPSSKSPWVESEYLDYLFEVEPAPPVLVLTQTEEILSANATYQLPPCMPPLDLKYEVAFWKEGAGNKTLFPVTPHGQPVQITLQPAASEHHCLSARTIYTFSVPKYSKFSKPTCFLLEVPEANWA
Briefly: BLI.

B1: IFNλ4 variant M1 (L28N) (ligand, human, UniProt K9M1U5 22-179, looked up)
chain: AAPRRCNLSHYRSLEPRTLAAAKALRDRYEEEALSWGQRNCSFRPRRDPPRPSSCARLRHVARGIADAQAVLSGLHRSELLPGAGPILELLAAAGRDVAACLELARPGSSRKVPGAQKRRHKPRRADSPRCRKASVVFNLLRLLTWELRLAAHSGPCL
modifications: biotinylated (site not stated) for BLI; N-glycan at N61; mutated L28N not glycosylated
With B1, the results for the Kd in the experiment with IL10Rβ and with IFNλR1 were 49 nM and 14 nM, respectively.

B2: IFNλ4 variant M7 (L28N + P73N) (ligand, human, UniProt K9M1U5 22-179, looked up)
chain: AAPRRCNLSHYRSLEPRTLAAAKALRDRYEEEALSWGQRNCSFRPRRDPPRNSSCARLRHVARGIADAQAVLSGLHRSELLPGAGPILELLAAAGRDVAACLELARPGSSRKVPGAQKRRHKPRRADSPRCRKASVVFNLLRLLTWELRLAAHSGPCL
modifications: biotinylated (site not stated) for BLI; N-glycans at N61 and at mutated P73N; mutated L28N not glycosylated
B2: the Kd was 49 nM with IL10Rβ and 17 nM with IFNλR1.

B3: IFNλ4 WT purified from E. coli (eIFNλ4) (ligand, human, UniProt K9M1U5 22-179, looked up)
chain: AAPRRCLLSHYRSLEPRTLAAAKALRDRYEEEALSWGQRNCSFRPRRDPPRPSSCARLRHVARGIADAQAVLSGLHRSELLPGAGPILELLAAAGRDVAACLELARPGSSRKVPGAQKRRHKPRRADSPRCRKASVVFNLLRLLTWELRLAAHSGPCL
modifications: biotinylated (site not stated) for BLI
With B3, the values for the Kd with IL10Rβ and with IFNλR1 were 71 nM and 19 nM, respectively.

B4: IFNλ4 variant M3 (P73N) (ligand, human, UniProt K9M1U5 22-179, looked up)
chain: AAPRRCLLSHYRSLEPRTLAAAKALRDRYEEEALSWGQRNCSFRPRRDPPRNSSCARLRHVARGIADAQAVLSGLHRSELLPGAGPILELLAAAGRDVAACLELARPGSSRKVPGAQKRRHKPRRADSPRCRKASVVFNLLRLLTWELRLAAHSGPCL
modifications: biotinylated (site not stated) for BLI; N-glycans at N61 and at mutated P73N
As for B4, the Kd with IL10Rβ was found to be 51 nM; with IFNλR1, 22 nM.
